{"source": "patent US12023367B2", "about": "“Immunomodulation for the long term prevention and treatment of autoimmune diseases and foreign tissue rejection” (University of Louisville Research Foundation, Inc., priority 2015, dated 2024)", "molecules": {"B1": {"name": "SA-FasL: chimeric protein of core streptavidin and the extracellular domain of FasL (rat FasL without metalloproteinase site); used unbound, in soluble form (protein)", "chain": "RSDYKDDDDKGTITGTWYNQLGSTFIVTAGADGALTGTYESAVGNAESRYVLTGRYDSAPATDGSGTALGWTVAWKNNYRNAHSATTWSGQYVGGAEARINTQWLLTSGATEANAWKSTLVGHDTFTKVKPSAASSGGGGSGGGGSGEFIANPSTPSETKKPRSVAHLTGNPRSRSIPLEWEDTYGTALISGVKYKKGGLVINEAGLYFVYSKVYFRGQSCNSQPLSHKVYMRNFKYPGDLVLMEEKKLNYCTTGQIWAHSSYLGAVFNLTVADHLYVNISQLSLINFEESKTFFGLYKL"}}, "key": {"[1]": {"biological_target": "avidin (Gallus gallus, UniProt P02701)", "sequence (P02701 25-152)": "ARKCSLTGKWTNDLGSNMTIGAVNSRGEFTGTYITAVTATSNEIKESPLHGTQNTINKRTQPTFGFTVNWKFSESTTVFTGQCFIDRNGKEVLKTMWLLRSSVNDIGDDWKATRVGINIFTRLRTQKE", "conditions": "cited from earlier work"}, "[2]": {"biological_target": "streptavidin (Streptomyces avidinii, UniProt P22629)", "sequence (P22629 25-183)": "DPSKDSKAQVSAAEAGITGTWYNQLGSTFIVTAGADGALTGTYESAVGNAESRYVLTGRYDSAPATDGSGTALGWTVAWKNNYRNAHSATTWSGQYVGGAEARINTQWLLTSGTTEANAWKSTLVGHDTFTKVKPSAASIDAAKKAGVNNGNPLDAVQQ", "conditions": "cited from earlier work"}, "[3]": {"tested_on": "C57BL/6 mice", "assay": "Mixed hematopoietic allogeneic chimerism after bone marrow transplantation, 100 cGy total body irradiation, with cyclophosphamide", "conditions": "mouse, in vivo", "procedure": "C57BL/6 mice were subjected to 100 cGy total body irradiation followed by intravenous transplantation of 30×10^6 unmodified (BMC) or the combination of SA-FasL and SA-IL-2 (mFasL/IL-2-BMC) one day later. […] All groups were treated i.p. with rapamycin (2 mg/kg) daily for 10 doses starting on day 6 pot-transplantation. The test group was also treated starting on day 6 post-transplantation with both soluble SA-FasL (sFasL; 500 ng/daily for 15 doses) and IL-2 (25,000 IU/daily for 7 doses). Percent donor chimerism at various times post-transplantation was assessed using peripheral blood lymphocytes with antibodies against donor class I MHC molecule in flow cytometry.\nThe tissues were, processed into single cell suspension, stained with antibodies to the indicated cell surface markers, and analyzed using flow cytometry."}, "[4]": {"tested_on": "NHP (rhesus monkey) PBMCs", "assay": "Apoptosis of NHP PBMC T cells cultured with SA-FasL (Annexin V, flow cytometry)", "assay_type": "cell-based", "conditions": "Teff (CD3+CD28-Fas+) or T central (CD3+CD28+Fas+) memory; PBMCs from 3 NHPs", "description": "FIG. 3. SA-FasL induces apoptosis in nonhuman primate (NHP) Teff cells. NHP (rhesus monkey) PBMCs were cultured with SA-FasL and apoptosis was assessed using Annexin V by gating on CD3^+ T cells. Cells incubated with SA served as controls. Data is representative of PBMCs from 3 NHPs.\nInasmuch as individuals with onset of autoimmunity have a large pool of activated and memory T cells, we asked if SA-FasL is capable of inducing apoptosis in such cells. For this purpose, we used nonhuman primate (NHP) peripheral blood lymphocytes (PBMCs). The PBMCs from 3 different NHPs were incubated with SA-FasL protein and apoptosis was assessed using flow cytometry."}, "[5]": {"tested_on": "STZ diabetic C57BL/6 mice", "assay": "Intraportal allogeneic islet transplantation (BALB/c-to-C57BL/6), soluble SA-FasL", "assay_type": "in vivo", "description": "FIG. 2. Survival of allogeneic islets transplanted intraportally with different treatment protocols. BALB/c islets were engineered with SA-FasL protein and transplanted intraportally into STZ diabetic C57BL/6 mice. Rapa was used daily at 0.2 mg/kg for 15 doses starting on day of transplantation. Soluble (s)FasL was used at the indicated dose and regimens.\nTo further establish SA-FasL as a soluble biologic, we tested its immunomodulatory capacity for the prevention of allogeneic islets transplanted using a more stringent model of intraportal islet transplantation. The rationale for this model is twofold. First, intraportal islet transplantation is the only site practiced in the clinic. Second, intraportal islet transplantation provides a much more stringent model as compared to subrenal islet transplantation. […] Therefore, we used this model to test if SA-FasL can be developed as a soluble biologic for the prevention and treatment of type I diabetes and foreign graft rejection."}, "[6]": {"tested_on": "STZ diabetic C57BL/6 mice", "assay": "Intraportal allogeneic islet transplantation, SA-FasL and IL-2", "assay_type": "in vivo", "conditions": "soluble SA-FasL as monotherapy", "description": "BALB/c islets were transplanted intraportally into STZ diabetic age-matched males and females C57BL/6 mice.\nThese islets were then immediately transplanted intraportally into diabetic mice (450-550 islets/mouse). Mice were then treated with the indicated proteins and doses. Animals were monitored for diabetes, and those with two consecutive daily measurements of ≥250 mg/dl blood glucose level were considered diabetic and confirmation of graft failure."}, "[7]": {"tested_on": "Female NOD mice", "assay": "Prevention of type 1 diabetes in NOD mice", "assay_type": "in vivo", "description": "FIG. 5. Systemic treatment with SA-FasL protein delays the onset and incidence of Type 1 Diabetes in NOD. Female NOD mice were treated with the indicated agents at 10-week of age. Mice were then monitored for hyperglycemia by urine glucose test, which was confirmed by a blood glucose test. Mice with >200 mg/dl blood glucose levels were considered diabetic. Soluble (s)SA-FasL in PBS was used at 500 ng/injection intraperitoneally daily for 30 days. […] Female mice without any treatment were used as controls. In the SA-FasL only treatment group, 3 diabetic mice were treated with an additional 10 daily doses (black arrows) of SA-FasL soon after incidence of diabetes, resulting in temporary remission of hyperglycemia in ⅔ of those mice.\nInasmuch as antigen-experienced cells express Fas receptor on their surface, systemic treatment with SA-FasL has potential to eliminate such cells and control/reverse T1D without a major effect on quiescent T cell repertoire. This notion was tested by treating 10-wk female NOD mice daily with 500 ng SA-FasL protein for 30 days. […] We next asked the question if SA-FasL will work in synergy with IL-2. […] Indeed, T regulatory cells express FasL on their surface and control T effector responses by direct elimination via Fas receptor or indirectly by eliminating Fas-expressing DCs."}, "[8]": {"tested_on": "C57BL/6 recipients of allogeneic BALB/c hearts", "assay": "Cardiac allograft survival, BALB/c-to-C57BL/6 model", "assay_type": "in vivo, mice", "conditions": "IL-2 7 doses or SA-FasL 15 doses i.p., no other manipulation", "description": "We next tested if SA-FasL as a biologic can work as an immunomodulator to prevent rejection of vascularized solid grafts. Heart transplantation from BALB/c into C57BL/6 mice was used as a stringent allogeneic heart graft model."}, "[9]": {"tested_on": "STZ diabetic C57BL/6 mice", "assay": "Allogeneic islet transplantation under the kidney capsule (BALB/c-to-C57BL/6)", "assay_type": "in vivo", "description": "FIG. 1. Systemic immunomodulation with soluble SA-FasL synergizes with SA-FasL-engineered islets for long-term survival. BALB/c islets were engineered with SA-FasL (mSA-FasL) or SA control (mSA) proteins and transplanted under the kidney capsule of STZ diabetic C57BL/6 mice. Soluble (s)SA-FasL was administered i.p. at 2-5 μg/mouse on days 1, 3, 5, 7 post-transplantation. In selected groups rapamycin was used at 0.2 mg/kg daily for 15 days starting the day of transplantation.\nTreatment with soluble SA-FasL only under a short course of rapamycin was also effective, achieving >80% graft survival."}}, "data": [{"molecule": "O=C(O)CCCC[C@@H]1SC[C@@H]2NC(=O)N[C@@H]21", "note": "[biotin]", "values": [{"measurement": "affinity for avidin", "setting": "[1]", "result": "10^15 M^−1"}, {"measurement": "affinity for streptavidin", "setting": "[2]", "result": "10^13 M^−1"}]}, {"molecule": "O=P1(N(CCCl)CCCl)NCCCO1", "note": "(stereo not shown) [cyclophosphamide]", "values": [{"measurement": "establishment of mixed hematopoietic allogeneic chimerism", "setting": "[3]", "result": "acted synergistically"}]}, {"molecule": "B1", "values": [{"measurement": "apoptosis of T cells", "setting": "[4]", "result": "Almost all T cells expressing Fas underwent apoptosis"}, {"measurement": "islet graft survival", "setting": "[5]; 4 doses of SA-FasL (2-5 μg/injection) i.v. or i.p. on days 1, 3, 5, 7, SA-FasL-engineered islets, intraportal", "result": "All BALB/c islets engineered with SA-FasL protein survived"}, {"measurement": "mice that rejected the graft", "setting": "[5]; soluble FasL 1 μg injection daily for 20 days from day of transplantation, no islet engineering, intraportal", "result": "one out of six"}, {"measurement": "day of graft rejection post-transplantation", "setting": "[5]; soluble FasL 1 μg injection daily for 20 days, the one rejecting mouse", "result": 80, "unit": "days"}, {"measurement": "toxicity", "setting": "[5]; soluble biologic at therapeutic doses", "result": "without toxicity"}, {"measurement": "allogeneic islets whose rejection was prevented", "setting": "[6]", "result": "~60", "unit": "%"}, {"measurement": "toxicity", "setting": "[7]; 500 ng SA-FasL daily for 30 days", "result": "did not observe any sign of SA-FasL toxicity"}, {"measurement": "onset and incidence of T1D vs controls", "setting": "[7]; 500 ng SA-FasL daily for 30 days, 10-wk female NOD", "result": "significantly delayed the onset and incidence of T1D"}, {"measurement": "temporary remission of hyperglycemia (fraction of mice)", "setting": "[7]; 3 diabetic mice given additional 10 daily doses of SA-FasL soon after incidence of diabetes", "result": "⅔"}, {"measurement": "effect on cardiac graft survival, monotherapy", "setting": "[8]", "result": "moderate prolongation of the grafts"}, {"measurement": "time of delayed rejection", "setting": "[9]; soluble SA-FasL 2-5 μg/mouse i.p. on days 1, 3, 5, 7, SA-FasL-islet grafts", "result": "~70", "unit": "days"}, {"measurement": "recipients with delayed rejection of allogeneic SA-FasL-islet grafts (fraction)", "setting": "[9]; soluble SA-FasL 2-5 μg/mouse i.p. on days 1, 3, 5, 7 post-transplantation, SA-FasL-engineered BALB/c islets under kidney capsule", "result": "⅛"}, {"measurement": "graft survival", "setting": "[9]; soluble SA-FasL only, under a short course of rapamycin", "result": "> 80", "unit": "%"}]}]}
